These results are taken from US20090181019A1.

The target in the experiment is IL-1 receptor (human) (UniProt P14778). Nature of the experiment: cell-based or functional assay.
Chain of UniProt P14778 (P14778 18-569): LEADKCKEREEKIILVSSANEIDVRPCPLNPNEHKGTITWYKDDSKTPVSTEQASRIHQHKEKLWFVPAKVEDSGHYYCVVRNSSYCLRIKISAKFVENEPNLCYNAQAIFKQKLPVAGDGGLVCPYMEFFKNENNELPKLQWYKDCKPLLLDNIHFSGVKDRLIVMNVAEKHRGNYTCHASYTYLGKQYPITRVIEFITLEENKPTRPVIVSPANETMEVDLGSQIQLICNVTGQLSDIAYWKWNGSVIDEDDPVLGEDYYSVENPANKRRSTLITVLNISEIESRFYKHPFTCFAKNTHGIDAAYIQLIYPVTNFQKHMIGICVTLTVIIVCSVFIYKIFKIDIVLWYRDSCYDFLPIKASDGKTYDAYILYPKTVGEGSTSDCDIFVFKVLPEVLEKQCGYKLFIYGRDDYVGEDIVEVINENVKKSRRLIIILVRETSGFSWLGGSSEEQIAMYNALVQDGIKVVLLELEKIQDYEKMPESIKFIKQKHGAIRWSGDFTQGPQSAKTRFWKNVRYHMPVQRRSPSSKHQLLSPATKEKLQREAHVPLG

“Kineret® (anakinra) (from UniProt P18510 26-177) (ligand)”: the IC50, inhibition of IL-1β stimulated release of IL-8 in human whole blood (100 pM rhIL-1β, IL-8 ELISA) came to 53.4 pM.
